Laboratory results taken from the supplement of paper PMC10567573.

B1: DFFB (parent)
chain: KLNCDPSRIYKPQTRLKRKQPVRK
B2: CPOX (parent)
chain: HAPTIHFNYRYFEVEEADGNKQWW

Variants of: B1
Experiment: protein stability index of a GFP-peptide fusion (GPS, HEK-293T) (PSI 1-6); higher = more stable
Conditions: c terminus: a fixed tail appended
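Also: lentivirally expressed fusions sorted by FACS into six bins by GFP to DsRed ratio, PSI derived from sequencing read proportions per bin multiplied by bin number.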

Protein stability index of substitutions, site by site:
R23: C 3.21 | E 3.34 | Y 3.48 | T 3.77 | W 2.59 | K 3.01 | V 3.25 | I 3.53 | D 3.83 | S 3.49 | M 3.1 | L 2.81 | P 3.84 | H 3.43 | A 3.39 | G 3.35 | Q 3.9
Q20: G 4.19 | I 3.69 | W 3.24 | D 3.35 | F 3.15 | R 3.59 | P 2.98 | C 3.6 | T 4.39 | S 2.75 | K 3.7 | H 3.12 | M 4.04 | E 3.04 | Y 2.91 | N 3.66 | V 3.54 | A 3.38
P21: R 3.31 | A 4.07 | Q 3.37 | Y 3.91 | G 3.49 | K 2.75 | T 3.86 | E 3.28 | M 3.76 | I 3.16 | C 3.36 | H 3.41 | F 3.37 | S 3.13 | W 3.45 | V 3.31 | N 3.67 | D 2.71
K24: V 2.49 | G 3.23 | D 3.56 | M 3.11 | I 3.03 | Q 3.18 | C 2.96 | A 4.04 | T 4.04 | S 4.02 | N 3.44 | E 3.99 | R 3.96 | F 2.7 | H 3.15 | Y 3.11 | L 2.87 | P 3.32
V22: I 3.78 | P 3.87 | D 3.67 | L 3.62 | T 3.64 | A 3.77 | Y 2.22 | R 2.03 | H 3.75 | E 3.31 | K 3.14 | F 3.48 | S 4.09 | Q 3.39 | G 4.39 | N 3.62 | M 3.42 | W 3.26 | C 3.41
K19: W 2.94 | Y 2.89 | Q 3.34 | C 2.69 | L 3.14 | N 3.54 | P 3.25 | R 3.9 | V 2.96 | G 2.63 | F 1.86 | S 2.78 | H 3.49 | E 2.93 | T 3.52 | D 3.53 | I 3.18 | M 3.31

Variants of: B2
Experiment: as above
Conditions: c terminus: a fixed tail appended

Protein stability index, by site and new letter:
T4: R 1.8 | S 2.8 | M 1.97 | G 2.57 | C 2.01 | H 2.62 | V 2.45 | I 2.21 | D 2.96 | A 2.38 | Y 1.39 | L 2.31 | E 2.29 | W 2.15 | K 2.26 | Q 2.66 | F 2.12 | P 2.7 | N 2.63
I5: H 2.82 | G 2.25 | E 3.55 | Q 2.7 | W 2.47 | P 2.78 | A 2.69 | S 2.65 | K 2.29 | L 2.14 | N 2.9 | D 3.41 | M 3.15 | R 2.64 | T 2.78 | V 2.43 | F 2.44 | C 2.4 | Y 1.97
N8: Y 2.02 | I 1.26 | K 1.67 | P 2.69 | D 2.75 | F 1.79 | G 2.36 | E 2.1 | T 1.87 | W 1.52 | V 1.57 | S 3.03 | M 2.53 | Q 2.48 | R 2.83 | A 2.22
F7: L 2.86 | V 2.58 | S 3.02 | Q 3.21 | C 2.35 | Y 2.48 | M 2.26 | W 2.96 | G 3.52 | N 2.71 | P 2.8 | E 3.06 | T 3.15 | I 3.05 | H 3.35 | A 3.4 | D 2.89 | R 2.83 | K 3.03
F12: R 2.96 | S 2.87 | A 2.49 | M 2.52 | H 3.01 | Y 2.84 | T 3.08 | N 3.05 | L 2.64 | W 1.99 | C 2.02 | G 3.51 | D 3.51 | P 3.12 | K 3.04 | E 2.99 | I 2.33 | Q 2.63
A2: D 2.94 | M 2.16 | H 2.44 | P 2.34 | S 2.78 | Y 2.33 | F 2.26 | T 2.5 | I 1.73 | G 2.43 | W 2.02 | L 2.11 | V 2.85 | R 2.73 | E 3.45 | K 2.38 | N 2.46 | C 1.99 | Q 3.31
H6: D 2.92 | M 1.94 | R 2.04 | A 2.19 | Y 2.68 | C 1.9 | T 2.42 | Q 2.52 | S 2.31 | F 1.52 | L 1.82 | P 1.89 | W 1.59 | N 2.5 | V 1.61 | E 2.66 | K 2.36 | I 2.34 | G 2.77
Y9: V 2.25 | C 1.29 | R 3.23 | M 2.6 | F 2.05 | D 3.46 | N 3.16 | H 2.9 | A 2.33 | P 3.1 | Q 2.82 | K 3.37 | L 3.03 | I 2.22 | W 3.32 | E 3.5 | T 2.79
Y11: H 3.13 | A 3.23 | M 2.42 | V 2.12 | S 2.92 | C 1.99 | I 2.16 | P 2.98 | N 2.98 | G 2.62 | W 2.79 | T 3.23 | E 3.35 | K 2.84 | L 2.39 | F 2.26 | R 2.36 | D 3.12
P3: R 2.69 | F 2.6 | Y 2.39 | C 1.62 | E 1.99 | N 2.09 | M 1.97 | L 2.49 | H 2.2 | W 1.17 | I 2.92 | K 1.93 | G 2.85 | Q 1.65 | V 1.8 | T 2.38 | D 2.67 | A 1.97 | S 1.99
R10: A 2.56 | D 3.03 | C 1.5 | H 2.44 | P 2.38 | L 2.25 | I 2.87 | N 2.12 | V 2.48 | F 1.77 | K 2.47 | Q 2.81 | S 2.07 | M 2.37 | E 2.7 | W 1.99 | T 2.55 | Y 2.27 | G 2.42
H1: Q 2.96 | S 2.89 | A 2.46 | N 2.54 | T 2.91 | L 1.92 | G 3.62 | C 2.15 | K 2.37 | P 2.62 | W 2.62 | R 3.24 | V 2.69 | E 2.42 | M 2.15 | I 2.05 | D 1.84
E13: D 2.36 | H 2.09 | G 2.06 | F 1.63 | C 2.07 | A 1.97 | I 2.04
